Patent US20240342322A1 (NETRIS PHARMA, published 2024)

Biological target: T1, recombinant human netrin-1 (R&D) (human, UniProt O95631 25-604, limits assumed)
T1 construct: Bought recombinant protein; also called h-netrin-1; human recombinant netrin-1
Assay: bio-layer interferometry

- binding result: binds
B1: recombinant human Vitronectin (other, UniProt P04004 20-478, looked up)
chain: DQESCKGRCTEGFNVDKKCQCDELCSYYQSCCTDYTAECKPQVTRGDVFTMPEDEYTVYDDGEEKNNATVHEQVGGPSLTSDLQAQSKGNPEQTPVLKPEEEAPAPEVGASKPEGIDSRPETLHPGRPQPPAEEELCSGKPFDAFTDLKNGSLFAFRGQYCYELDEKAVRPGYPKLIRDVWGIEGPIDAAFTRINCQGKTYLFKGSQYWRFEDGVLDPDYPRNISDGFDGIPDNVDAALALPAHSYSGRERVYFFKGKQYWEYQFQHQPSQEECEGSSLSAVFEHFAMMQRDSWEDIFELLFWGRTSAGTRQPQFISRDWHGVPGQVDAAMAGRIYISGMAPRPSLAKKQRFRHRNRKGYRSQRGHSRGRNQNSRRPSRATWLSLFSSEESNLGANNYDDYRMDWLVPATCEPIQSVFFFSGDKYYRVNLRTRRVDTVDPPYPRSIAQYWLGCPAPGHL
notes: also called h-Vitronectin
